Measured values published in patent publication US7612163B1, “Prokineticin 2β peptide and its use” (Janssen Pharmaceutica N.V., priority 2004, dated 2009).
Ends that are not written are not given here.

Tests used:
[1] = molecular target: T1, human prokineticin receptor 1 (PKR1) (human, UniProt Q8TCW9 1-393); assay: cell-based or functional assay
[2] = molecular target: T2, human prokineticin receptor 2 (PKR2) (human, UniProt Q8NFJ6 1-384); assay: cell-based or functional assay
[3] = molecular target: T1, human prokineticin receptor 1 (PKR1); assay: cell-based or functional assay; remark: listed apart in the source
[4] = molecular target: T2, human prokineticin receptor 2 (PKR2); assay: cell-based or functional assay; remark: listed apart in the source
[5] = molecular target: T1, human prokineticin receptor 1 (PKR1); assay: radioligand competition against 100 pM 125I-PK2-f on COS-7 cells expressing PKR1
Experimental: (§1) Radio-Ligand Binding Assays. PKR1 and PKR2 in the expression vector pCIneo (Promega) were transfected into COS-7 cells using LipofectAmine (Invitrogen). Two days after transfection, cells were detached from the culture dishes by 10 mM EDTA in PBS, washed with Dulbecco's Modified Eagle's Medium (DMEM) and seeded in 96-well opaque polylysine-coated plates (BD Biosciences, San Jose, Calif.) at a density of 50,000 cells per well. […] The binding assays were performed in DMEM plus 50 mM HEPES, pH 7.2 and 1% bovine serum albumin in a final volume of 100 µl. The binding assays were carried out at room temperature for 1 hour. After the plates were washed three times with ice cold PBS, Microscint-40 (Packard, Meriden, Conn.) was added and the plates were counted on a Topcount (Packard).
(§2) Different concentrations of PK1, PK2 or PK2β were added to the assays as the competitors. All assays were performed in triplicates. The results are mean values (±S.E.M) of triplicates. Figure 4B:
(§3) Prokineticins bind PKR1 and PKR2 with different affinities. With the purified PK2β available, it was investigated whether PK2β binds PKR1 or PKR2 in comparison with PK1 and PK2. […] Membranes from COS-7 cells transiently expressing PKR1 and PKR2 were used in competition binding assays. The results (FIG. 4A) indicate that PK1, PK2, and PK2β all bind PKR1 with high affinities, with the rank order of potency PK2>PK2β≅PK1.

[6] = molecular target: T2, human prokineticin receptor 2 (PKR2); assay: radioligand competition against 100 pM 125I-PK2-f on COS-7 cells expressing PKR2
Experimental: as §1, §2, §3

[7] = molecular target: T1, human prokineticin receptor 1 (PKR1); assay: radioligand binding on PKR1 expressing cells
[8] = molecular target: T2, human prokineticin receptor 2 (PKR2); assay: radioligand binding on PKR2 expressing cells
[9] = molecular target: PKR1 (Homo sapiens, UniProt Q8TCW9); assay: Radioligand competition binding assay (125I-PK2-f), PKR1 expressing COS-7 cells; parameters: The full-length cDNA coding regions for both PKR1 and PKR2 were PCR-amplified from human fetal brain cDNA; expressed in transfected cells; host or cells: COS-7 (transient, pCIneo); settings: FIG. 4A
PKR1, sequence (Q8TCW9 whole entry): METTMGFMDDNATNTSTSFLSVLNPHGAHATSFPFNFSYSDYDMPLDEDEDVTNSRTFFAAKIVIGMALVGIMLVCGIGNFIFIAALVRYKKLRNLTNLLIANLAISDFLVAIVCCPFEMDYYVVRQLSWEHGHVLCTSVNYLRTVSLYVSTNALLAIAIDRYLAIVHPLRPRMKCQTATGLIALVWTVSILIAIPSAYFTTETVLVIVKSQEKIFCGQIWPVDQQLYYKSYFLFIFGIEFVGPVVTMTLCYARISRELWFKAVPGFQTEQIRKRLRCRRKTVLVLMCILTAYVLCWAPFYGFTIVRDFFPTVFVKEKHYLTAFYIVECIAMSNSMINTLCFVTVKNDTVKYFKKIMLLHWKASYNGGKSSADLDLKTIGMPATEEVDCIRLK
Experimental: (§4) FIGS. 4A and 4B graphically illustrate that PKs bind the PKR1 and PKR2 with different affinities. COS-7 cells transiently expressing PKR1 or PKR2 were seeded to 96-well plates. ^125I-labeled PK2-f was added to each well at a final concentration of 100 pM. Different concentrations of PK1, PK2 or PK2β were added to the assays as the competitors. All assays were performed in triplicates. The results are mean values (±S.E.M) of triplicates. FIG. 4A provides the results of the binding assay using PKR1 expressing cells.
(§5) Expression, purification, and iodination of C-terminal FLAG-tagged PK2. C-terminal FLAG-tagged PK2 (PK2-f) was constructed as described (Soga et al., 2002). Two primers P9: ATCGAGAATTCGCCACCATGAGGAGCCTGTGCTGCGCCC (SEQ.ID.NO.:11) and P10: GGATCCCTACTTATCGTCGTCATCCTTATAATCCTTTTGGGCTAAACA (SEQ.ID.NO.:12) were used to amplify human whole brain cDNA (Clontech). The PCR-amplified PK2-f was cloned into a mammalian expression vector pCMV-sport1 (Invitrogen). The resulting clones were sequenced to confirm the identities and transfected into COS-7 cells using LipofectAmine (Invitrogen). Three days after transfection, the cell culture supernatant was collected and run through an ANTI-FLAG M2 agarose (Sigma) affinity column. The column was washed with PBS and eluted with […] Glycine HCl, pH 3.0. The eluted protein fraction was immediately neutralized with 1 M Tris-HCl, pH 8.0 and then further purified by reverse-phase HPLC using a C4 column (Vydac). The purified recombinant PK2-f protein was iodinated using Iodogen reagent (Pierce, Rockford, Ill.) and ^125I-NaI (PerkinElmer, Boston, Mass.) as described by Pierce. The iodinated PK2-f was purified by a G-50 (Amersham Pharmacia Biotech) gel filtration column.
(§6) Radio-Ligand Binding Assays. PKR1 and PKR2 in the expression vector pCIneo (Promega) were transfected into COS-7 cells using LipofectAmine (Invitrogen). […] After the plates were washed three times with ice cold PBS, Microscint-40 (Packard, Meriden, Conn.) was added and the plates were counted on a Topcount (Packard).

[10] = molecular target: T3, PKR2 (Homo sapiens, UniProt Q8NFJ6); assay: Radioligand competition binding assay (125I-PK2-f), PKR2 expressing COS-7 cells; parameters: The full-length cDNA coding regions for both PKR1 and PKR2 were PCR-amplified from human fetal brain cDNA; expressed in transfected cells; host or cells: COS-7 (transient, pCIneo); settings: FIG. 4B
T3 sequence (Q8NFJ6 whole entry): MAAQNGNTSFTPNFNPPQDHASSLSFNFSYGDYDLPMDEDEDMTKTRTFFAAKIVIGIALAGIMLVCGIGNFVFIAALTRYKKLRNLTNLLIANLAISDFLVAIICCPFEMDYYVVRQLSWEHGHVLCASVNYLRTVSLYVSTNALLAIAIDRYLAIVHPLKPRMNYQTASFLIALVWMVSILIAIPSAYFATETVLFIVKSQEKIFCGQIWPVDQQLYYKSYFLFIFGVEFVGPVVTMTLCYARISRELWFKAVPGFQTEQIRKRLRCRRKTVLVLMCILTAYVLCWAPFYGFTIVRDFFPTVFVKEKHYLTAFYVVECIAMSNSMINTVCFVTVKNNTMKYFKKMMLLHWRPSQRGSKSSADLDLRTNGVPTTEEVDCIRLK
Experimental: as §4, §5, §6

[11] = molecular target: T3, PKR2; assay: cAMP accumulation (cAMP [125I] FlashPlate) in HEK 293 cells co-expressing PKR2/Gs; assay type: cell-based; parameters: The full-length cDNA coding regions for both PKR1 and PKR2 were PCR-amplified from human fetal brain cDNA; expressed in transfected cells; host or cells: HEK293 (transient, pCIneo, co-transfected with Gs plasmid); settings: FIG. 8C
Experimental: FIGS. 8B and 8C illustrate results from HEK 293 cells co-expressing PKR1/Gs (FIG. 8B) or PKR2/Gs (FIG. 8C) stimulated with different PKs at various concentrations (the accumulated cAMP was measured by a cAMP [^125I] FlashPlate Assay kit; the results are mean values (±S.E.M) of triplicate experiments (legend: ▪, PK1; ▴, PK2; ▾, PK2β)).
In a different experiment, PKR1 and PKR2 in the expression vector pCIneo (Promega) were co-transfected with the Gs expression plasmid into HEK293 cells using LipofectAmine (Invitrogen). Two days after transfection, cells were detached with 10 mM EDTA in PBS, resuspended in Dulbecco's Modified Eagle's Medium/F12 (DMEM/F12) media, and then plated on 96-well plates at a density of 50,000 cells per well. Two hours after the seeding, cells culture medium was replaced with DMEM/F12 containing 2 mM isobutylmethylxanthine (Sigma) and incubated for 30 min. Different concentrations of PK1, PK2 or PK2β were added to cells and incubated for an additional 30 min in a final volume of 200 μl/well. The reaction was stopped and cAMP was extracted by adding 20 μl of 0.5 N HCl to each well. Cell culture media were tested for cAMP concentrations by the cAMP [^125I] FlashPlate Assay kit (PerkinElmer) as described by the manufacturer.

T1 sequence (Q8TCW9 whole entry): as the sequence (Q8TCW9 whole entry) above
T2 sequence (Q8NFJ6 whole entry): as the sequence (Q8NFJ6 whole entry) above

B1: human prokineticin 1 (PK1) mature peptide (ligand, UniProt P58294 20-105, looked up)
chain: AVITGACERDVQCGAGTCCAISLWLRGLRMCTPLGREGEECHPGSHKVPFFRKRKHHTCPCLPNLLCSRFPDGRYRCSMDLKNINF
notes: mature; also called EG-VEGF
With B1 the “EC50 for Ca2+ mobilization in PKR expressing HEK 293 cells” value (from here on “EC50 for Ca2+ mobilization”) [1] was 1.1 nM, the “EC50 for Ca2+ mobilization” value [2] was 7.7 nM and the “EC50 for stimulation of cAMP accumulation (β-galactosidase reporter), SK-N-MC cells” value (“EC50 for stimulation … SK-N-MC cells” below) [3] was 8.34 nM. For the same molecule, the “EC50 for stimulation of cAMP accumulation, HEK 293 cells” value (from here on “EC50 for stimulation … HEK 293 cells”) [3] was 16.8 nM, the “EC50 for stimulation … SK-N-MC cells” value [4] was 20 nM and the “EC50 for stimulation … HEK 293 cells” value [4] was 60 nM. For the same molecule, the IC50 [5] was 27.6 nM and the IC50 [6] was 52.2 nM.

B2: 125I-labeled human PK1 (ligand, UniProt P58294 20-105, looked up)
chain: AVITGACERDVQCGAGTCCAISLWLRGLRMCTPLGREGEECHPGSHKVPFFRKRKHHTCPCLPNLLCSRFPDGRYRCSMDLKNINF
modifications: 125I at Tyr75
notes: mature; Told of only in the discussion, as an attempted radioligand
B2: binds [7]; binds [8].

B3: prokineticin 1 (protein)
chain: AVITGACERDVQCGAGTCCAISLWLRGLRMCTPLGREGEECHPGSHKVPFFRKRKHHTCPCLPNLLCSRFPDGRYRCSMDLKNINF
notes: recombinant human PK1 mature peptide, also known as endocrine gland vascular endothelial growth factor
For B3, the “Binding to PKR1, in words” value [9] was “high affinities”, the “Binding to PKR2, in words” value [10] was “high affinity” and the “cAMP accumulation in PKR2 expressing HEK293 cells, in words” value [11] was “high-potency ligands”.

B4: human PK2β mature peptide (ligand)
chain: AVITGACDKDSQCGGGMCCAVSIWVKSIRICTPMGKLGDSCHPLTRKNNFGNGRQE
modifications: ends and bridges not checked; cysteine pairing not given here
notes: Proteolytically processed form of PK2L secreted by COS-7 cells; The FLAG tag was removed with enterokinase; also called processed product of PK2L
B4 was tested, and the “EC50 for Ca2+ mobilization” value [1] was 1.5 nM, the “EC50 for Ca2+ mobilization” value [2] was 80 nM and the “EC50 for stimulation … HEK 293 cells” value [3] was 23.4 nM. The “EC50 for stimulation … HEK 293 cells” value [4] was greater than 1000 nM and the IC50 [5] was 34.6 nM.

B5: human prokineticin 2 (PK2) (ligand)
chain: AVITGACDKDSQCGGGMCCAVSIWVKSIRICTPMGKLGDSCHPLTRKVPFFGRRMHHTCPCLPGLACLRTSFNRFICLAQK
notes: Made in COS-7 cells with an N-terminal FLAG tag that was removed with enterokinase, then HPLC purified; also called mammalian Bv8
B5 was tested, and the “EC50 for Ca2+ mobilization” value [1] was 0.8 nM, the “EC50 for Ca2+ mobilization” value [2] was 3.6 nM and the “EC50 for stimulation … SK-N-MC cells” value [3] was 1.27 nM. The “EC50 for stimulation … HEK 293 cells” value [3] was 3.17 nM, the “EC50 for stimulation … SK-N-MC cells” value [4] was 12.1 nM and the “EC50 for stimulation … HEK 293 cells” value [4] was 41 nM. It also gave an IC50 [5] of 4.5 nM and an IC50 [6] of 6.4 nM.

B6: 125I-labeled C-terminal FLAG-tagged PK2 (ligand)
chain: AVITGACDKDSQCGGGMCCAVSIWVKSIRICTPMGKLGDSCHPLTRKVPFFGRRMHHTCPCLPGLACLRTSFNRFICLAQK
modifications: 125I on the Tyr in the FLAG-tag
notes: Expressed from human PK2 cDNA with its own signal peptide and secreted by COS-7 cells; also called PK2-f; not shown: C-terminal FLAG tag
B6: binds [7]; binds [8].

B7: prokineticin 2 (protein)
chain: AVITGACDKDSQCGGGMCCAVSIWVKSIRICTPMGKLGDSCHPLTRKVPFFGRRMHHTCPCLPGLACLRTSFNRFICLAQK
notes: recombinant human PK2 peptide expressed in COS-7 cells
In the case of B7, the “Binding to PKR1, in words” value [9] is reported as “high affinities”, the “Binding to PKR2, in words” value [10] is reported as “high affinity” and the “cAMP accumulation in PKR2 expressing HEK293 cells, in words” value [11] is reported as “high-potency ligands”.
